Tested on: rLDHA (Homo sapiens)
Experiment: SPR
Details: His-tag pull-down: protein on beads in 50 mM Na3PO4, 300 mM NaCl, 0.01% Tween-20, pH 8.0, RNA binding 2 h in 3.25 mM Na3PO4, 70 mM NaCl

## HULC lncRNA (in vitro transcribed)
  Kd: 29 nM
